{
  "source": "patent US20240400717A1",
  "about": "(NATIONAL CHENG KUNG UNIVERSITY, published 2024)",
  "binders": {"B1": {"name": "anti-CHI3L1 clone 293R3-5 (antibody, human IgG1, V domains shown)", "VH": "EVQLVQSGAGVKKPGATVKISCKVSGYTFTDYYMHWVQQAPGKGLEWMGLVDPEDGETIYAEKFQGRVTITADTSTDTAYMELSSLRSEDTAVYYCATASPREEMPYYFDYWGQGTLVTVSS", "VL": "SYELTQPPSVSVSPGQTASITCSGDILADQYASWYQQKPGQSPVLVIYHDTKRPSGVPERFSGSTSGNTATLTISGTQAMDEAAYYCQAWDINTAWVFGGGTQLTVLG", "notes": "also called #hu 293R3-5"}},
  "key": {"[1]": {"biological_target": "T1, recombinant human CHI3L1 (human, UniProt P36222 22-383)", "T1 construct": "also called rCHI3L1; human rCHI3L1", "T1 sequence (P36222 22-383 limits assumed)": "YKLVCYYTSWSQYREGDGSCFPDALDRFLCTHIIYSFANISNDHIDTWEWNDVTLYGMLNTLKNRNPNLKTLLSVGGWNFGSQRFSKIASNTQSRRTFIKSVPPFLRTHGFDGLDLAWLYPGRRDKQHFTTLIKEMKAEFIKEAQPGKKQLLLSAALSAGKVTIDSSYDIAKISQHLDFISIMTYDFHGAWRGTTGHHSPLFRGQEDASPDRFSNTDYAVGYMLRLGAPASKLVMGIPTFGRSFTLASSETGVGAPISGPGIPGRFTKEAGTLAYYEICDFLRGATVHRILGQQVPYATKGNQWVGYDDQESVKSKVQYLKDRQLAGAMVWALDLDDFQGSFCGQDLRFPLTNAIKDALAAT", "assay": "phage ELISA (3rd round single clone screening): coated protein, rescued phage supernatant, anti-M13-HRP, OD450"}, "[2]": {"biological_target": "T2, mouse rCHI3L1 (mouse, UniProt Q61362 30-389, limits assumed)", "T2 construct": "also called mouse CHI3L1; murine CHI3L1", "T2 sequence (Q61362 30-389 limits assumed)": "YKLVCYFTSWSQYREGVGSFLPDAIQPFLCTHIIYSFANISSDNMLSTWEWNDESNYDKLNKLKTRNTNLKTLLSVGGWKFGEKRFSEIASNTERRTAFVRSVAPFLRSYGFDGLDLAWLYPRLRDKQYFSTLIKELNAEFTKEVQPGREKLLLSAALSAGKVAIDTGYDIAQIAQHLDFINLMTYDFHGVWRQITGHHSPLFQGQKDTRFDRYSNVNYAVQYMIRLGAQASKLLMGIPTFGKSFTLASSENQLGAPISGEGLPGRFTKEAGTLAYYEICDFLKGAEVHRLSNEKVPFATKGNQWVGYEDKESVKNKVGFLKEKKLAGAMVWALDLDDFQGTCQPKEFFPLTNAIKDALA", "assay": "phage ELISA (3rd round single clone screening): coated protein, rescued phage supernatant, anti-M13-HRP, OD450"}},
  "data": [
    {"binder": "B1", "values": [
      {"measurement": "binding result", "setting": "[1]", "result": "binds"},
      {"measurement": "binding result", "setting": "[2]", "result": "no binding"}
    ]}
  ]
}
